Ends that are not written are not given here.
T1: NRP2b peptide (biotinylated) (human, biotin-conjugated, site not stated)
T1 construct: also called NRP2b isoform specific peptide
T1 peptide: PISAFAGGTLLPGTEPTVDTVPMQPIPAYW

T2: human NRP2b expressed on Expi293F cells (human)
T2 construct: also called full length NRP2b
T2 chain: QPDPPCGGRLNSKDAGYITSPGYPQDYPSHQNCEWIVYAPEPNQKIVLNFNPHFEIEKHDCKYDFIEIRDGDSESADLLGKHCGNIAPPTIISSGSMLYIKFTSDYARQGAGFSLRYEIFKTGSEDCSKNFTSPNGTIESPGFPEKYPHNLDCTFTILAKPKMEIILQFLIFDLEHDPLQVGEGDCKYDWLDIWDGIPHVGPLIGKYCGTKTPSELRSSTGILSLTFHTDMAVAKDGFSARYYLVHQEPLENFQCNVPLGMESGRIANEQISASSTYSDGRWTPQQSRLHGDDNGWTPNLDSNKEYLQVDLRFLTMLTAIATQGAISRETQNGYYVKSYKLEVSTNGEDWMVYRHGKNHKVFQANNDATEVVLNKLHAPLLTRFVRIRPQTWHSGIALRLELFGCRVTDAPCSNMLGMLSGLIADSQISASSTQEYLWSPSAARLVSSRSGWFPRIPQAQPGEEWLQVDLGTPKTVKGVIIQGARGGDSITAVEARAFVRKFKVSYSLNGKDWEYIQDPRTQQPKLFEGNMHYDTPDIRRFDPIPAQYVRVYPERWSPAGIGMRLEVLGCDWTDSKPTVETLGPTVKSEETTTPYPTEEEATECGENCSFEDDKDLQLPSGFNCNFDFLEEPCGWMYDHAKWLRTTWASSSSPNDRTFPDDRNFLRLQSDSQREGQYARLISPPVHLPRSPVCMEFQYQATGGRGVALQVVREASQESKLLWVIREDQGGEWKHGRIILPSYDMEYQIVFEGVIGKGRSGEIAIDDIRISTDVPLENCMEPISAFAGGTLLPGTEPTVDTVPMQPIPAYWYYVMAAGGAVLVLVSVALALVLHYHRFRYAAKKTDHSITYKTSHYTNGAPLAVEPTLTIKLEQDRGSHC

T3: NRP2v3
T3 construct: not the NanoLuc-tagged construct m33; also called human NRP2 v3 expressed on Expi293F cells; NRP2a v3
T3 chain: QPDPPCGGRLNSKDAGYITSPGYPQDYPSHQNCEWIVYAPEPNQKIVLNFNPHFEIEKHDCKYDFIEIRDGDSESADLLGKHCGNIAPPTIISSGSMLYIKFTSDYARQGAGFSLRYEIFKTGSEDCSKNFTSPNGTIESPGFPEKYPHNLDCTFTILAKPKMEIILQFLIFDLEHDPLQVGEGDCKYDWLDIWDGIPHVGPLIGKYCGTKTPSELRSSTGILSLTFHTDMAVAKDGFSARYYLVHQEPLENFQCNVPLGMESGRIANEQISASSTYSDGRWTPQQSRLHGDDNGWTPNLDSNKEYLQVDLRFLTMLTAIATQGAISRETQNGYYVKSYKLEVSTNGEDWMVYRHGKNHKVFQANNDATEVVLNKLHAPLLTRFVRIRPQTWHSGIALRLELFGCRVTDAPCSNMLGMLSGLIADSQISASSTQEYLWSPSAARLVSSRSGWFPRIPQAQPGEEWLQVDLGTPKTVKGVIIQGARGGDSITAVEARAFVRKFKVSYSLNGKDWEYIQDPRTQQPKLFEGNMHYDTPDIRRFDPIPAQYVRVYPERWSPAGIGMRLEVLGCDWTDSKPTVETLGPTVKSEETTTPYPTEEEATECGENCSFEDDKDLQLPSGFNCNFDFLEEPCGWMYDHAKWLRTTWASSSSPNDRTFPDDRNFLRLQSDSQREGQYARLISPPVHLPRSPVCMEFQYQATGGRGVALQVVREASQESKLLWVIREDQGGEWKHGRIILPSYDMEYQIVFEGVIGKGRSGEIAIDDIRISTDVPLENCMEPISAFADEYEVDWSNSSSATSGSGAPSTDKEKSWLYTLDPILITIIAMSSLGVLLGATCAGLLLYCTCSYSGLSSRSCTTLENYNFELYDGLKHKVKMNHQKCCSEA

T4: NRP2a_scan 2 peptide (biotinylated) (human, also: biotin-conjugated, site not given here)
T4 peptide: PEIHEREGYEDE

T5: NRP2a_scan 6 peptide (biotinylated) (human, also: biotin-conjugated, site not given here)
T5 peptide: IDDEYEVDWSNS

T6: NRP2a_scan 4 peptide (biotinylated) (human, also: biotin-conjugated, site not given here)
T6 peptide: EGYEDEIDDEYE

T7: Mid-mNRP2A peptide (biotinylated) (mouse, biotin-conjugated, site not stated)
T7 peptide: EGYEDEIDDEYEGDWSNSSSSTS

T8: NRP2a_scan 5 peptide (biotinylated) (human, also: biotin-conjugated, site not given here)
T8 peptide: EDEIDDEYEVDW

T9: NRP2a_scan 3 peptide (biotinylated) (human, also: biotin-conjugated, site not given here)
T9 peptide: HEREGYEDEIDD

T10: NRP2a_scan 7 peptide (biotinylated) (human, also: biotin-conjugated, site not given here)
T10 peptide: EYEVDWSNSSSA

T11: Mid-NRP2A peptide (biotinylated) (human, biotin-conjugated, site not stated)
T11 peptide: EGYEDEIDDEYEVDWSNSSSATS

T12: NRP2a_scan 1 peptide (biotinylated) (human, also: biotin-conjugated, site not given here)
T12 peptide: VDIPEIHEREGY


Columns and labels:
[1] = biological target: T13, NRP2A peptide (biotinylated) (human, biotin-conjugated, site not stated); test: BLI, isoform peptide on sensor, 50 nM antibody
T13 construct: also called NPR2A; NRP2a specific peptide

[2] = biological target: T1, NRP2b peptide (biotinylated); test: peptide ELISA
[3] = biological target: T2, human NRP2b expressed on Expi293F cells; test: flow cytometry, Expi293F cells transfected with the target, fluorescent anti-mouse secondary; MFI signal relative to mock-transfected cells
Protocol: (§1) Signal to noise was calculated as the staining intensity of transfected cells compared to an un-transfected ‘mock’ population.

NRP2v3 = biological target: T3, NRP2v3; test: as above
Protocol: as §1

[4] = biological target: T4, NRP2a_scan 2 peptide (biotinylated); test: BLI, peptide on sensor;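 note: octet RED96e biolayer interferometry with biotin-conjugated NRP2 peptides spanning isoform-specific regions (human and mouse) loaded on biosensors, antibodies applied at 50 nM, association read over 300 s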
Protocol: (§2) Biolayer interferometry (BLI) experiments were carried out on an Octet RED96e instrument (Sartorius) to further characterize antibody affinities to the NRP2 peptides screened above. Antibodies were epitope mapped using peptides that span the NRP2a isoform specific region; antibodies were also tested for reactivity to an NRP2b isoform specific peptide and cross-reactivity to mNRP2a and mNRP2b peptides (see Table E2 for peptide sequences).
(§3) Antibodies and peptides were diluted in 1×PBS, 0.1% BSA, 0.02% Tween 20, pH 7.4. […] The biosensors were then dipped into 50 nM solutions of each antibody and read for 300s. The biosensors were regenerated in 10 mM glycine, pH 1.5 in between cycles of different antibodies.

[5] = biological target: T5, NRP2a_scan 6 peptide (biotinylated); test: BLI, peptide on sensor;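 note: octet RED96e biolayer interferometry with biotin-conjugated NRP2 peptides spanning isoform-specific regions (human and mouse) loaded on biosensors, antibodies applied at 50 nM, association read over 300 s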
Protocol: as §2, §3

[6] = biological target: T6, NRP2a_scan 4 peptide (biotinylated); test: BLI, peptide on sensor;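 note: octet RED96e biolayer interferometry with biotin-conjugated NRP2 peptides spanning isoform-specific regions (human and mouse) loaded on biosensors, antibodies applied at 50 nM, association read over 300 s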
Protocol: as §2, §3

[7] = biological target: mNRP2b peptide (biotinylated) (mouse, biotin-conjugated, site not stated); test: BLI, peptide on sensor;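 note: octet RED96e biolayer interferometry with biotin-conjugated NRP2 peptides spanning isoform-specific regions (human and mouse) loaded on biosensors, antibodies applied at 50 nM, association read over 300 s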
[8] = biological target: T7, Mid-mNRP2A peptide (biotinylated); test: BLI, peptide on sensor
Protocol: as §2, §3

[9] = biological target: T8, NRP2a_scan 5 peptide (biotinylated); test: BLI, peptide on sensor
Protocol: as §2, §3

[10] = biological target: T9, NRP2a_scan 3 peptide (biotinylated); test: BLI, peptide on sensor
Protocol: as §2, §3

[11] = biological target: Short NRP2A peptide (biotinylated) (human, biotin-conjugated, site not stated); test: BLI, peptide on sensor
[12] = biological target: T10, NRP2a_scan 7 peptide (biotinylated); test: BLI, peptide on sensor
Protocol: as §2, §3

[13] = biological target: T11, Mid-NRP2A peptide (biotinylated); test: BLI, peptide on sensor
Protocol: as §2, §3

[14] = biological target: T12, NRP2a_scan 1 peptide (biotinylated); test: BLI, peptide on sensor
Protocol: as §2, §3

[15] = biological target: T14, human NRP2a v2 expressed on Expi293F cells (human, UniProt O60462 23-931); test: flow cytometry, Expi293F cells transfected with the target, fluorescent anti-mouse secondary; MFI signal relative to mock-transfected cells
T14 construct: cDNA Origene RCC220706; also called NRP2 v2
Protocol: as §1

[16] = biological target: T15, mNRP2A peptide (biotinylated) (mouse, biotin-conjugated, site not stated); test: BLI, peptide on sensor, 50 nM antibody
T15 construct: also called mouse NRP2 isoform a peptide

[17] = biological target: T5, NRP2a_scan 6 peptide (biotinylated); test: BLI, peptide on sensor, 50 nM antibody
[18] = biological target: T8, NRP2a_scan 5 peptide (biotinylated); test: BLI, peptide on sensor, 50 nM antibody
[19] = biological target: T11, Mid-NRP2A peptide (biotinylated); test: BLI, peptide on sensor, 50 nM antibody

Chain of mNRP2b peptide (biotinylated) (mouse, biotin-conjugated, site not stated) (peptide, as listed by the source): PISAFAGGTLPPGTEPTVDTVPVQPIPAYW

binding result [1] | binding result [2] | binding result [3] | binding result (NRP2v3) | binding result [4] | binding result [5] | binding result [6] | binding result [7] | binding result [8] | binding result [9] | binding result [10] | binding result [11] | binding result [12] | binding result [13] | binding result [14] | binding result [15] | binding result [16] | binding result [17] | binding result [18] | binding result [19] | Binder
binds | no binding (tested: <3x blank) | no binding | no binding | no binding (tested: 50 nM) | no binding (tested: 50 nM) | no binding (tested: 50 nM) | no binding (tested: 50 nM) | no binding (tested: 50 nM) | no binding (tested: 50 nM) | no binding (tested: 50 nM) | no binding (tested: 50 nM) | no binding (tested: 50 nM) | no binding (tested: 50 nM) | no binding (tested: 50 nM) | binds | binds |  |  |  | aNRP2-408v2 (antibody, V domains shown, Mouse monoclonal) VH: EVKLVESGGGLVKPGGSLKLSCAASGFTFSSYAMSWVRQTPEKRLEWVASISRGSITYYPDSVKGRFTISRDNAGNILYLQMSSLRSEDTAMYYCAREYYYAMDYWGQGTSVTVSS VL: DIQMTQSPSSLSASLGERVSLTCRASQDIGSRLNWLQQEPDGTIKRLIYATSSLDSGVPKRFSGSRSGSDYSLTISSLESEDFVDYYCLQYASSPYTFGGGTKLEIK
 | no binding (tested: <3x blank) | no binding | no binding | no binding (tested: 50 nM) | no binding (tested: 50 nM) | no binding (tested: 50 nM) | no binding (tested: 50 nM) | no binding (tested: 50 nM) | no binding (tested: 50 nM) | no binding (tested: 50 nM) | no binding (tested: 50 nM) | no binding (tested: 50 nM) | no binding (tested: 50 nM) | no binding (tested: 50 nM) |  |  |  |  |  | aNRP2-409v3 (antibody, V domains shown, Mouse monoclonal; also called 409 v2; aNRP2-409v2) VH: EVQFVETGGGLVQPKGSLKLSCAASGFTFNTNAMNWVRQAPGKGLEWVARIRTKSNNYATYYADSVKDRFTISRDDSQNILYLQMNNLKTEDTAMYYCVTLDSSGYVWFAYWGQGTLVTVSA VL: DIQMTQSPSSLSASLGERVSLTCRASQDIGSRLNWLQQEPDGTIKRLIYATSSLDSGVPKRFSGSRSGSDYSLTISSLESEDFVDYYCLQYASSPYTFGGGTKLEIK
binds | no binding (tested: <3x blank) | no binding | no binding | no binding (tested: 50 nM) | no binding (tested: 50 nM) | no binding (tested: 50 nM) | no binding (tested: 50 nM) | no binding (tested: 50 nM) | no binding (tested: 50 nM) | no binding (tested: 50 nM) | no binding (tested: 50 nM) | no binding (tested: 50 nM) | no binding (tested: 50 nM) | no binding (tested: 50 nM) |  | binds |  |  |  | aNRP2-405v2 (antibody, V domains shown, Mouse monoclonal) VH: EVMLVESGGGLVKPGGSLKLSCAASGFTFRRYAMSWVRQTPEKGLEWVATITSGGSYTYYLDSVKGRITISRDNAKNTLYLQMSSLRSEDTAMYYCARHGIYGGFDYWGQGTTLTVSS VL: DVLMTQTPLSLPVSLGDQASISCRSSQSIVHSDGNTYLEWYLQKPGQSPNLLIYKVSNRFSGVPDRFSGSGSGTDFTLKISRVEAEDLGIYYCFQGSHVPFTFGSGTKLEIK
binds | no binding (tested: <3x blank) |  |  | no binding (tested: 50 nM) |  | no binding (tested: 50 nM) | no binding (tested: 50 nM) |  |  | no binding (tested: 50 nM) | no binding (tested: 50 nM) | no binding (tested: 50 nM) |  | no binding (tested: 50 nM) |  |  | binds | binds | binds | aNRP2-403v2 (antibody, V domains shown, Mouse monoclonal) VH: QVQLQQPGAELVKPGASVKLSCKASGYTFTSYWMHWVKQRPGRGLEWIGRIDPNSGDTKYNEKFKSKATLTVDKPSSTAYMQVSSLTSEDSAVYYCARSYDYALEYWGQGTSVTVSS VL: DVVMTQTPLSLPVSLGDQASISCRSSQSLVHSNGNTYLHWFLQKPGQSPNLLIYKVSNRFSGVPDRFSGSGSGTDFTLKISRVEAEDLGVYFCSQNTRVPRTFGGGTKLEIK

Reference: US20240417476A1 (ATYR PHARMA, published 2024)
